Columns and labels:
HeLa Kyoto [1] = test: melting temperature (median over replicates), in situ; higher = more thermally stable
HeLa Kyoto [2] = test: thermal stability score vs G1/S (z-score of summed log2 fold changes over temperatures); higher = more thermally stable than in G1/S
HeLa Kyoto [3] = test: solubility in G1/S (NP-40 vs SDS abundance) (log2 ratio); higher = more soluble; settings: cell cycle stage: G1/S
HeLa Kyoto [4] = test: solubility change mitosis vs G1/S (difference of NP-40 vs SDS log2 ratios) (log2 ratio difference); higher = more soluble in mitosis
[5] = cell cycle stage: early G1 (4.5 h after nocodazole release)
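Wherever melting temperature (median over replicates), in situ is given: HeLa Kyoto cells synchronized by double thymidine or nocodazole block, proteins quantified by TMT10plex mass spectrometry, three independent biological replicates.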
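Wherever solubility change mitosis vs G1/S (difference of NP-40 vs SDS log2 ratios) is given: synchronized HeLa Kyoto cells (double thymidine block for G1/S, nocodazole release for mitosis), protein amounts in NP-40 versus SDS lysates quantified by mass spectrometry, three biological replicates.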
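Wherever solubility in G1/S (NP-40 vs SDS abundance) is given: HeLa Kyoto cells arrested at G1/S by double thymidine block, proteins quantified by TMT10plex mass spectrometry in mild NP-40 versus SDS extracts, three biological replicates.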
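Wherever thermal stability score vs G1/S (z-score of summed log2 fold changes over temperatures) is given: synchronized HeLa Kyoto cells, proteins quantified by TMT10plex mass spectrometry, three biological replicates, mitosis taken 0.5 h after nocodazole release, G1/S directly after double thymidine block.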

MAAPEEHDSPTEASQPIVEEEETKTFKDLGVTDVLCEACDQLGWTKPTKIQIEAIPLALQGRDIIGLAETGSGKTGAFALPILNALLETPQRLFALVLTPTRELAFQISEQFEALGSSIGVQSAVIVGGIDSMSQSLALAKKPHIIIATPGRLIDHLENTKGFNLRALKYLVMDEADRILNMDFETEVDKILKVIPRDRKTFLFSATMTKKVQKLQRAALKNPVKCAVSSKYQTVEKLQQYYIFIPSKFKDTYLVYILNELAGNSFMIFCSTCNNTQRTALLLRNLGFTAIPLHGQMSQSKRLGSLNKFKAKARSILLATDVASRGLDIPHVDVVVNFDIPTHSKDYIHRVGRTARAGRSGKAITFVTQYDVELFQRIEHLIGKKLPGFPTQDDEVMMLTERVAEAQRFARMELREHGEKKKRSREDAGDNDDTEGAIGVRNKVAGGKMKKRKGR [DDX47]
melting temperature (HeLa Kyoto [1]; cell cycle stage: G1/S): 50.9 °C | melting temperature (HeLa Kyoto [1]; cell cycle stage: mitosis): 51.3 °C | thermal stability score (HeLa Kyoto [2]; [5]): 0.865 | thermal stability score (HeLa Kyoto [2]; cell cycle stage: mitosis): 1.97 | solubility in G1/S (log2) (HeLa Kyoto [3]): -1.22 | solubility change mitosis (log2) (HeLa Kyoto [4]): 0.607

MAAPGAPAEYGYIRTVLGQQILGQLDSSSLALPSEAKLKLAGSSGRGGQTVKSLRIQEQVQQTLARKGRSSVGNGNLHRTSSVPEYVYNLHLVENDFVGGRSPVPKTYDMLKAGTTATYEGRWGRGTAQYSSQKSVEERSLRHPLRRLEISPDSSPERAHYTHSDYQYSQRSQAGHTLHHQESRRAALLVPPRYARSEIVGVSRAGTTSRQRHFDTYHRQYQHGSVSDTVFDSIPANPALLTYPRPGTSRSMGNLLEKENYLTAGLTVGQVRPLVPLQPVTQNRASRSSWHQSSFHSTRTLREAGPSVAVDSSGRRAHLTVGQAAAGGSGNLLTERSTFTDSQLGNADMEMTLERAVSMLEADHMLPSRISAAATFIQHECFQKSEARKRVNQLRGILKLLQLLKVQNEDVQRAVCGALRNLVFEDNDNKLEVAELNGVPRLLQVLKQTRDLETKKQITDHTVNLRSRNGWPGAVAHACNPSTLGGQGGRITRSGVRDQPDQHGLLWNLSSNDKLKNLMITEALLTLTENIIIPFSGWPEGDYPKANGLLDFDIFYNVTGCLRNMSSAGADGRKAMRRCDGLIDSLVHYVRGTIADYQPDDKATENCVCILHNLSYQLEAELPEKYSQNIYIQNRNIQTDNNKSIGCFGSRSRKVKEQYQDVPMPEEKSNPKGVEWLWHSIVIRMYLSLIAKSVRNYTQEASLGALQNLTAGSGPMPTSVAQTVVQKESGLQHTRKMLHVGDPSVKKTAISLLRNLSRNLSLQNEIAKETLPDLVSIIPDTVPSTDLLIETTASACYTLNNIIQNSYQNARDLLNTGGIQKIMAISAGDAYASNKASKAASVLLYSLWAHTELHHAYKKAQFKKTDFVNSRTAKAYHSLKD [PKP2]
melting temperature (HeLa Kyoto [1]; cell cycle stage: G1/S): 50.7 °C | melting temperature (HeLa Kyoto [1]; cell cycle stage: mitosis): 49.9 °C | thermal stability score (HeLa Kyoto [2]; [5]): -1.03 | thermal stability score (HeLa Kyoto [2]; cell cycle stage: mitosis): -0.99 | solubility in G1/S (log2) (HeLa Kyoto [3]): -0.953 | solubility change mitosis (log2) (HeLa Kyoto [4]): 0.0433

MAAPGLRLGAGRLFEMPAVLERLSRYNSTSQAFAEVLRLPKQQLRKLLYPLQEVERFLAPYGRQDLHLRIFDPSPEDIARADNIFTATERNRIDYVSSAVRIDHAPDLPRPEVCFIGRSNVGKSSLIKALFSLAPEVEVRVSKKPGHTKKMNFFKVGKHFTVVDMPGYGFRAPEDFVDMVETYLKERRNLKRTFLLVDSVVGIQKTDNIAIEMCEEFALPYVIVLTKIDKSSKGHLLKQVLQIQKFVNMKTQGCFPQLFPVSAVTFSGIHLLRCFIASVTGSLD [GTPBP8]
melting temperature (HeLa Kyoto [1]; cell cycle stage: G1/S): 50.8 °C | melting temperature (HeLa Kyoto [1]; cell cycle stage: mitosis): 52.8 °C | thermal stability score (HeLa Kyoto [2]; [5]): -0.696 | thermal stability score (HeLa Kyoto [2]; cell cycle stage: mitosis): 0.105 | solubility in G1/S (log2) (HeLa Kyoto [3]): 0.0451 | solubility change mitosis (log2) (HeLa Kyoto [4]): -0.0931

MAAPGPALCLFDVDGTLTAPRQKITKEMDDFLQKLRQKIKIGVVGGSDFEKVQEQLGNDVVEKYDYVFPENGLVAYKDGKLLCRQNIQSHLGEALIQDLINYCLSYIAKIKLPKKRGTFIEFRNGMLNVSPIGRSCSQEERIEFYELDKKENIRQKFVADLRKEFAGKGLTFSIGGQISFDVFPDGWDKRYCLRHVENDGYKTIYFFGDKTMPGGNDHEIFTDPRTMGYSVTAPEDTRRICELLFS [PMM2]
melting temperature (HeLa Kyoto [1]; cell cycle stage: G1/S): 53 °C | melting temperature (HeLa Kyoto [1]; cell cycle stage: mitosis): 53.3 °C | thermal stability score (HeLa Kyoto [2]; [5]): 12.5 | thermal stability score (HeLa Kyoto [2]; cell cycle stage: mitosis): 3.25 | solubility in G1/S (log2) (HeLa Kyoto [3]): 0.526 | solubility change mitosis (log2) (HeLa Kyoto [4]): -0.0066

MAAPGSCALWSYCGRGWSRAMRGCQLLGLRSSWPGDLLSARLLSQEKRAAETHFGFETVSEEEKGGKVYQVFESVAKKYDVMNDMMSLGIHRVWKDLLLWKMHPLPGTQLLDVAGGTGDIAFRFLNYVQSQHQRKQKRQLRAQQNLSWEEIAKEYQNEEDSLGGSRVVVCDINKEMLKVGKQKALAQGYRAGLAWVLGDAEELPFDDDKFDIYTIAFGIRNVTHIDQALQEAHRVLKPGGRFLCLEFSQVNNPLISRLYDLYSFQVIPVLGEVIAGDWKSYQYLVESIRRFPSQEEFKDMIEDAGFHKVTYESLTSGIVAIHSGFKL [COQ5]
melting temperature (HeLa Kyoto [1]; cell cycle stage: G1/S): 54.4 °C | melting temperature (HeLa Kyoto [1]; cell cycle stage: mitosis): 56.3 °C | thermal stability score (HeLa Kyoto [2]; [5]): -1.07 | thermal stability score (HeLa Kyoto [2]; cell cycle stage: mitosis): -0.586 | solubility in G1/S (log2) (HeLa Kyoto [3]): -0.0892 | solubility change mitosis (log2) (HeLa Kyoto [4]): 0.0212

Source: the supplement of paper PMC5998384
